In US20260356982 (published 2026) one finds Kd data, which are given here for seven molecules.

Where a chain is given by its changes, count along the chain named.

T1: FLAG tag
T1 chain: DYKDDDDK

B1: Parental (mouse VH/VL, human constant regions) (antibody, V domains shown)
VH: QVQLQQSAGELARPGASVKMSCKASGYSFTTYTIHWVKQRPGQGLEWIGYINPSSGYAAYNQNFKDETTLTADKSSSTAYMQLSSLTSEDSAVYYCAREKFYGYDYWGQGTTLTVSS
VL: DVLMTQLPLSLPVSLGDQASISCRSSQSIVHRNGNTYLEWYLLKPGQSPKLLIYKVSNRFSGVPDRFSGSGSGTDFTLKISRVEAEDLGVYYCFQGSHVPYTFGGGTKLEIK
B2: V4 IgG (antibody, V domains shown)
VH: QVQLVQSGAEVKKPGASVKVSCKASGYSFTTYTIHWVRQAPGQGLEWIGYINPSSGYAAYNQKFQGRVTLTADKSTSTAYMELSSLRSEDTAVYYCAREKFYGYDYWGQGTTVTVSS
VL: DVVMTQSPDSLAVSLGERATINCKSSQSIVHRNGNTYLEWYQQKPGQPPKLLIYKVSNRFSGVPDRFSGSGSGTDFTLTISSLQAEDVAVYYCFQGSHVPYTFGGGTKLEIK
B3: V3 IgG (antibody, V domains shown)
VH: B2 VH
VL: B2 VL with Q43L
B4: V7 IgG (antibody, V domains shown)
VH: B2 VH with I34M, I48M, L70M
VL: B2 VL with Q43L
B5: V7 scFv (antibody, V domains shown)
VH: B2 VH with I34M, I48M, L70M
VL: B2 VL with Q43L
B6: V3 scFv (antibody, V domains shown)
VH: B2 VH
VL: B2 VL with Q43L
B7: V4 scFv (antibody, V domains shown)
VH: B2 VH
VL: B2 VL

One experiment has as its target T1, FLAG tag. Put plainly: SPR bivalent.
B1 displayed a Kd of 0.96 nM. On the same count and under the same terms, the figure for B2 is 0.91 nM; for B3 it is 1 nM. On to B4, for which the Kd came out at 1.3 nM.

The next experiment concerns the target T1, FLAG tag. Nature of the experiment: SPR. Background: SPR reads the build-up and loss of mass on a sensor chip optically.
In the case of B5, the Kd amounted to 15 nM. B6 yielded a Kd of 19 nM. In turn, B7 gave a Kd of 22 nM.
